# Laboratory results from publication PMC11231100 (2024).
# B1: IMM01 (SIRPα Fc fusion protein) (Fc fusion)
# chain: EEELQVIQPDKSVLVAAGETATLRCTATSLIPVGPIQWFRGAGPGRELIYNQKEGHFPRVTTVSDLTKRNNMDFSIRIGNITPADAGTYYCVKFRKGSPDDVEFKSGAGTELSVRAKP
# modifications: SIRPα IgV domain (SD1), limits by convention (complete V domain through its last strand, just before the first C1 domain); dimeric through an Fc that is left out; allelic variant and any engineered substitution not given
# Key:
# CD47 [1] = target: T1, CD47 (human (endogenous in Jurkat and Reh), UniProt Q08722 19-323); experiment: FACS; competition with SIRPα-mFc on Jurkat cells (CD38low/CD47+)
# CD47 [2] = target: T1, CD47; experiment: FACS; competition with SIRPα-mFc on Reh cells (CD38high/CD47+)
binder,measurement,setting,value
B1,IC50,CD47 [1],0.0977 µg/mL
same,IC50,CD47 [2],0.216 µg/mL
